Source: US20080057063A1 (published 2008)
Like-named read-outs stand apart in the source and are kept apart here.

Tests used:
[1] = target: T1, α4β1 integrin (on J6.77 cells) (UniProt P13612 34-1032; P05556 21-798, limits assumed); test: cell-based or functional assay
[2] = target: T2, human αV on parental A375M cells, which express αVβ3 and αVβ5, but not αVβ6 (human, UniProt P06756 31-1048); test: FACS, parental A375M cells (αVβ3, αVβ5)
T2 construct: whole, on cells; Two heterodimers (αVβ3, αVβ5) on one cell line; also called αVβ3 or αVβ5 integrins
T2 sequence (P06756 31-1048 A375M): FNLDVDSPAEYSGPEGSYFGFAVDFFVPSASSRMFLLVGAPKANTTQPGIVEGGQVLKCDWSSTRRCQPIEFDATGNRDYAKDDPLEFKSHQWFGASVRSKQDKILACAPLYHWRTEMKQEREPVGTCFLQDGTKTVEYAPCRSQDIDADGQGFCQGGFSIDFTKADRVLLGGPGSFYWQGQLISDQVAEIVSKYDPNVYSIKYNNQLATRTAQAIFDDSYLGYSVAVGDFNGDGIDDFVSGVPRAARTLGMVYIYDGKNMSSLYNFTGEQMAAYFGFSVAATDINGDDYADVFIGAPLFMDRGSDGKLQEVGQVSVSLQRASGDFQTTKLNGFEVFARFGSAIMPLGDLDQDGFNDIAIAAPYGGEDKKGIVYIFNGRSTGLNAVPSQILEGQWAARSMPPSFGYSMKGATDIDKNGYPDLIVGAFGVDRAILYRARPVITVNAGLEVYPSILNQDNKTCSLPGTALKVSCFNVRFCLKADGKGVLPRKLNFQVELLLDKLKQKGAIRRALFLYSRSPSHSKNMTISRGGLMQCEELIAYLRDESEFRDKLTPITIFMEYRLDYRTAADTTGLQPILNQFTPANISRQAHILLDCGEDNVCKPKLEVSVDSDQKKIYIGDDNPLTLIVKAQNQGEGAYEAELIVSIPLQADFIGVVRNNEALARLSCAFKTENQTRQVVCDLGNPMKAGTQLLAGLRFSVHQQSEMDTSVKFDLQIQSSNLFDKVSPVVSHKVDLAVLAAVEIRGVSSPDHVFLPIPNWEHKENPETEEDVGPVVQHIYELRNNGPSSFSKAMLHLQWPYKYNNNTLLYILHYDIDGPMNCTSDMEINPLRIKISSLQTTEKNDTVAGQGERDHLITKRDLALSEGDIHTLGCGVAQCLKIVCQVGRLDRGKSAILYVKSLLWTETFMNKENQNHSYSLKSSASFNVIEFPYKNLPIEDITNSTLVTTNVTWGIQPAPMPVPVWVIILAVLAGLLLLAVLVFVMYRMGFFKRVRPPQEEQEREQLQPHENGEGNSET
Method: For this assay, cross-reactivity was tested on the supernatants using FACS analysis on parental A375M cells, which express αVβ3 and αVβ5, but not αVβ6.
The assays were performed as follows. […] The cells were then pelleted, the supernatant discarded, and resuspended in FACS buffer and incubated for 30 minutes at 37° C. Cells were then washed twice with FACS buffer and resuspended in a final volume of 100 μL FACS buffer per well.
Approximately 100,000 cells total, comprising a 50:50 mix of CFSE-labeled A375M cells and transfected 293 cells, were used in each reaction as follows. 100 μL of CFSE-labeled A375M cells and 100 μL of 293 cells were dispensed into a V-bottom plate. The cells in the plate were pelleted at 1500 rpm for 3 minutes, and then resuspended in 100 μL FACS buffer. The pelleting step was repeated, and the FACS buffer supernatant was removed. The harvested antibody-containing supernatants, or control primary antibodies were added in a volume of 50 μL and the cells were resuspended. […] The plate was incubated on ice for 45 minutes, after which 100 μL FACS buffer was added to dilute the primary antibody. The cells were then pelleted by centrifuging at 1500 rpm for 3 minutes, and the pellet was resuspended in 100 μL FACS buffer. The pelleting step was repeated, and the FACS buffer supernatant was removed. Cells were then resuspended in the appropriate secondary antibody (5 μg/ml) with 7AAD dye (10 μg/ml), and stained on ice for 7 minutes. Then 150 μL of FACS buffer was added and the cells were pelLeted at 1500 rpm for 3 minutes, after which the cells were washed in 100 μL FACS buffer, pelleted, and then resuspended in 250 μL buffer and added to FACS tubes.

[3] = target: T3, human αVβ6 integrin on cells (human, UniProt P06756 31-1048; P18564 22-788); test: cell-based or functional assay
T3 sequence (P06756 31-1048, chain 1 of 2): as the sequence (P06756 31-1048 A375M) above, with M345A counted along it
T3 sequence (P18564 22-788, chain 2 of 2): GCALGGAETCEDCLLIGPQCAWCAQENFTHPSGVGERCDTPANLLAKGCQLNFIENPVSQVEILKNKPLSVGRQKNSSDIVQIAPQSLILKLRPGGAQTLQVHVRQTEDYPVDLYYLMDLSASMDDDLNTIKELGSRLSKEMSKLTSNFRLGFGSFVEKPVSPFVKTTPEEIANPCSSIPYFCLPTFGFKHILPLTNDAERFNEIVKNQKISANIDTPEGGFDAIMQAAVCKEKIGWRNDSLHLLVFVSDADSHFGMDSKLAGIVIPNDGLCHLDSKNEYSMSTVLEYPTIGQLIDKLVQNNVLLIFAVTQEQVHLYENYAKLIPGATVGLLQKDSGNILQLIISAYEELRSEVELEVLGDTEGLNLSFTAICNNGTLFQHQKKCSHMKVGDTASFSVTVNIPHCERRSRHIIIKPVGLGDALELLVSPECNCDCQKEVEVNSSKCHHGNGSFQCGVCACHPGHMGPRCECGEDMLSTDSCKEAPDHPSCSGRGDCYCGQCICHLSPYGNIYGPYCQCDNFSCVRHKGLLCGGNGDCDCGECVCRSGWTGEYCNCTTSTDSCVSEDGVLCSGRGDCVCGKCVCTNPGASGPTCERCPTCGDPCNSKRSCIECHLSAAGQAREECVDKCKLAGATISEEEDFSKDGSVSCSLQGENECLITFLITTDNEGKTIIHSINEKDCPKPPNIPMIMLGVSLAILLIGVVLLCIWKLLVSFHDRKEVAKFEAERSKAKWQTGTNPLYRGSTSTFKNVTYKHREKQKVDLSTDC

[4] = target: T3, human αVβ6 integrin on cells; test: cell-based or functional assay; remark: listed apart in the source
[5] = target: T4, α5β1 integrin (on K562 cells) (UniProt P08648 42-1049; P05556 21-798, limits assumed); test: cell-based or functional assay
T4 sequence (P08648 42-1049 limits assumed, chain 1 of 2): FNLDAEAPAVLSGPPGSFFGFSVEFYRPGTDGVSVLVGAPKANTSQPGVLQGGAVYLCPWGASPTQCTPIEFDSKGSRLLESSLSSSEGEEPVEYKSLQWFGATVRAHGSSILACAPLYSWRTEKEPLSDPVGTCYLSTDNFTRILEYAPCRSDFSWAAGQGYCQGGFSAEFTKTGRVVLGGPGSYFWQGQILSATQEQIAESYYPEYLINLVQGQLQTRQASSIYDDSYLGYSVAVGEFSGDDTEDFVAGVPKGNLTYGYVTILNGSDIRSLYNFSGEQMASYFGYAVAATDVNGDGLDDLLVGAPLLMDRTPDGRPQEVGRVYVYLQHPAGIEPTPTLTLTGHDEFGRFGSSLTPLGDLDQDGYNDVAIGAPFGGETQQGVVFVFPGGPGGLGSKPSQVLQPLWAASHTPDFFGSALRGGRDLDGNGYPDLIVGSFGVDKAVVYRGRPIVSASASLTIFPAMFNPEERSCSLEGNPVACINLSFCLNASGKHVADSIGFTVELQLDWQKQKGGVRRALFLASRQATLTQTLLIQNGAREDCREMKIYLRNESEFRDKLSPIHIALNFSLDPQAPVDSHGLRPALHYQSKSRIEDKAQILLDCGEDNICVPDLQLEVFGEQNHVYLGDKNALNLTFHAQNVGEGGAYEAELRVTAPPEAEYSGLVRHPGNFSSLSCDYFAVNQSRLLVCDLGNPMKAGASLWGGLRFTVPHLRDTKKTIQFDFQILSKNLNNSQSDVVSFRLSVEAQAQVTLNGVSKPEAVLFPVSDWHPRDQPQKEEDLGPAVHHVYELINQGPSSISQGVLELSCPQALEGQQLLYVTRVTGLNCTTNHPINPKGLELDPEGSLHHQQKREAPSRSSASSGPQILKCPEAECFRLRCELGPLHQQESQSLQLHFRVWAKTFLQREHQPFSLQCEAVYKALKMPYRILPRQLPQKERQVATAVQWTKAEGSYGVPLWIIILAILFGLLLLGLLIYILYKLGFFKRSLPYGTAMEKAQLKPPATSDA
T4 sequence (P05556 21-798 limits assumed, chain 2 of 2): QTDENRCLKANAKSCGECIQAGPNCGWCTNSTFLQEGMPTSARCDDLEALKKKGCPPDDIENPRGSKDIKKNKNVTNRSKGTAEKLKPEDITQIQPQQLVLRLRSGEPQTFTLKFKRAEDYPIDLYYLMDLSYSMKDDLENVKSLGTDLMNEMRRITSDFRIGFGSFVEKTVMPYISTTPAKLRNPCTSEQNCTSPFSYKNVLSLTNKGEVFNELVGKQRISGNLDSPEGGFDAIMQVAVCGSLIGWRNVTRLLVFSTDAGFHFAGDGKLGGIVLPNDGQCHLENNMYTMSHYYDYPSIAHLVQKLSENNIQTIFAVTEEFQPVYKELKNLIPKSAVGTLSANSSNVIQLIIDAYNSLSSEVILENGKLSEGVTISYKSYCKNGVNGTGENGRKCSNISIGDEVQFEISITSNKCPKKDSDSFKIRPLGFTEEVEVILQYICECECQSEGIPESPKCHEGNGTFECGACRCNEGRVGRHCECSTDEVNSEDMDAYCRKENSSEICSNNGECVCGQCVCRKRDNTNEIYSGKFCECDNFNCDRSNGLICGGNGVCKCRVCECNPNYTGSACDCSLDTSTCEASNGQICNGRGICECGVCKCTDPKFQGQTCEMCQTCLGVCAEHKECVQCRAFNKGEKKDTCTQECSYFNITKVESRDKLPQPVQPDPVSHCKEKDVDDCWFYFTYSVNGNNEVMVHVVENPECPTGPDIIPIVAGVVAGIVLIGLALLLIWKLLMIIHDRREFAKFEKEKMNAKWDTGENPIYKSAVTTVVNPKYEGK

cynomolgus αVβ6 on cells = target: T5, cynomolgus αVβ6 on cells (cynomolgus, UniProt A0A2K5WCD3 31-1048; A0A2K5TZ36 22-787); test: FACS, HEK-293 transfected with cynomolgus αV and β6
T5 construct: whole, on cells; also called macaque αVβ6; Mac AVB6
Method: Cross-reactivity of the antibody-containing supernatants to macaque αVβ6 was tested on the supernatants using FACS analysis on HEK-293 cells transiently transfected with cynomolgus αV and cynomolgus β6.
HEK-293 cells were transiently transfected with cynomolgus αV and cynomolgus β6. After 48 hours, the cells were collected and resuspended in FACS buffer to reach a final concentration of approximately 50,000 cells in 100 μL.
Approximately 100,000 cells total, comprising a 50:50 mix of CFSE-labeled A375M cells and transfected 293 cells, were used in each reaction as follows. 100 μL of CFSE-labeled A375M cells and 100 μL of 293 cells were dispensed into a V-bottom plate. The cells in the plate were pelleted at 1500 rpm for 3 minutes, and then resuspended in 100 μL FACS buffer. The pelleting step was repeated, and the FACS buffer supernatant was removed. The harvested antibody-containing supernatants, or control primary antibodies were added in a volume of 50 μL and the cells were resuspended. […] The plate was incubated on ice for 45 minutes, after which 100 μL FACS buffer was added to dilute the primary antibody. The cells were then pelleted by centrifuging at 1500 rpm for 3 minutes, and the pellet was resuspended in 100 μL FACS buffer. The pelleting step was repeated, and the FACS buffer supernatant was removed. Cells were then resuspended in the appropriate secondary antibody (5 μg/ml) with 7AAD dye (10 μg/ml), and stained on ice for 7 minutes. Then 150 μL of FACS buffer was added and the cells were pelLeted at 1500 rpm for 3 minutes, after which the cells were washed in 100 μL FACS buffer, pelleted, and then resuspended in 250 μL buffer and added to FACS tubes. Samples were analyzed on a high throughput FACS machine and analyzed using Cell Quest Pro software.

[6] = target: T3, human αVβ6 integrin on cells; test: FMAT, HEK 293 cells overexpressing αVβ6, supernatant
soluble αVβ6 = target: T6, soluble αVβ6 (human, UniProt P06756 31-992; P18564 22-709); test: Biacore, mAb captured on anti-human IgG, soluble αVβ6 injected, 1:1 fit
T6 construct: extracellular domain; also called soluble αVβ6 protein; soluble antigen
Method: The Biacore analysis was performed as follows. A high-density goat α human IgG antibody surface over two CM5 Biacore chips was prepared using routine amine coupling. Each mAb was diluted in degassed HBS-P running buffer containing 100 μg/ml BSA, 1 mM MgCl₂, and 1 mM CaCl₂ to a concentration of approximately 1 μg/mL. […] A 4-minute wash step at 50 μL/min followed to stabilize the mAb baseline.
A 10-minute dissociation followed each antigen injection. The antigen samples were prepared in the HBS-P running described above. All samples were randomly injected in triplicate with several mAb capture/buffer inject cycles interspersed for double referencing. […] A flow rate of 50 μL/min was used for all antigen injection cycles.
The data were then fit to a 1:1 interaction model with the inclusion of a term for mass transport using CLAMP.

[7] = target: T2, human αV on parental A375M cells, which …; test: cell-based or functional assay
[8] = target: T1, α4β1 integrin (on J6.77 cells); test: cell-based or functional assay; remark: listed apart in the source
[9] = target: T4, α5β1 integrin (on K562 cells); test: cell-based or functional assay; remark: listed apart in the source

B1: sc 320 (antibody, V domains shown)
VH: EVQLVESGGGLVKPGGSLRLSCAASGYTFTNYIMHWVRQAPGKGLEWVSSISISSSYIYYADSVKGRFTISRDNAKNSLYLQMNSLRAEDTAVYYCARDPVPLERRDYYYGMDVWGQGTTVTVSS
VL: QSVLTQPPSMSAAPGQKVTISCSGSSSNIGNNYVSWYQQLPGTAPKLLIYDNNKRPSGIPDRFSGSKSGTSATLGITGLQTGDEADYYCGTWDSSLSAGVFGGGTKLTVL
Percent Inhibition (J6.77 adhesion to CS-1 peptide of fibronectin, 5 ug/ml) [1]: -8% | % Cells Shifted [2]: 15% | GeoMean [2]: 23.2

B2: sc 254 (antibody, V domains shown)
VH: QVQLQESGPGLVKPSQTLSLTCTVSGGSISSGGYYWSWIRQHPGKGLEWIGYIYYSGSTYYNPSLKSRVTISVDTSKNQFSLKLSSVTAADTAMYYCARYRGPAAGRGDFYYFGMDVWGQGTTVTVSS
VL: DIVMTQTPLSLSVTPGQPASIFCKSSQSLLNSDGKTYLCWYLQKPGQPPQLLIYEVSNRFSGVPDRFSGSGSGTDFTLKISRVEAEDVGVYYCMQGIQLPWAFFGQGTKVEIK
Assay 1 % Inhibition (HT29 adhesion to TGFβLAP) [3]: 98% | Assay 2 % Inhibition (HT29 adhesion to TGFβLAP) [3]: 106% | Average % Inhibition (HT29 adhesion to TGFβLAP) [3]: 102% | Estimated IC50, n = 1 (HT29 adhesion to TGFβLAP) [4]: 0.063 µg/mL | Estimated IC50, n = 2 (HT29 adhesion to TGFβLAP) [4]: 0.037 µg/mL | Estimated IC50, n = 3 (HT29 adhesion to TGFβLAP) [4]: 0.037 µg/mL | Percent Inhibition (J6.77 adhesion to CS-1 peptide of fibronectin, 5 ug/ml) [1]: 0% | Percent Inhibition (K562 adhesion to FN9-10 peptide of fibronectin, 5 µg/ml) [5]: -9% | GeoMean (cynomolgus αVβ6 on cells): 78.5 | FMAT Count [6]: 174 | FMAT FL1 [6]: 9180 | FMAT FL1 × Count [6]: 1.6e+06 | Kd (soluble αVβ6): 34.9 nM

B3: sc 97 (antibody, V domains shown)
VH: EVQLVQSGAEVKKPGESLKISCKGSGYSFTSYWIGWVRQMPGKGLEWMGIIYPGDSDTRYSPSFQGQVILSADKSISTAYLQWSSLKASDTAMYYCARHDESSGYYYVFDIWGQGTMVTVSS
VL: SYELTQPPSVSVSPGQTARITCSGDALPKKYAYWYQQKSGQAPVLVIYEDIKRPSGIPERFSGSSSGTMATLTISGAQVEDEADYYCYSTDSSGNHWVFFGGGTKLTVL
notes: also called sc 097
Percent Inhibition (J6.77 adhesion to CS-1 peptide of fibronectin, 5 ug/ml) [1]: -7% | % Cells Shifted [2]: 24% | GeoMean [2]: 1.84

B4: sc 298 (antibody, V domains shown)
VH: QVQLVESGGGVVQPGRSLRLSCAASGFTFSSYGMHWVRQAPGKGLEWVAVIWYGGSNKYYADSVKGRFTISRDNSKNTLYLQMNSLRAEDTAVYYCARDLAARRGDYYYYGMDVWGQGTTVTVSS
VL: SSELTQDPVVSVALGQTVRITCQGDSLRSYYLSWYQQKPGQAPVLVIYGKNNRPSGIPDRFSGSNSGNTASLTITGAQAEDEADYYCNSRDSSGNHLFGGGTKLTVL
Assay 1 % Inhibition (HT29 adhesion to TGFβLAP) [3]: 98% | Assay 2 % Inhibition (HT29 adhesion to TGFβLAP) [3]: 102% | Average % Inhibition (HT29 adhesion to TGFβLAP) [3]: 100% | Estimated IC50, n = 1 (HT29 adhesion to TGFβLAP) [4]: 0.029 µg/mL | Estimated IC50, n = 2 (HT29 adhesion to TGFβLAP) [4]: 0.025 µg/mL | Estimated IC50, n = 3 (HT29 adhesion to TGFβLAP) [4]: 0.033 µg/mL | Percent Inhibition (A375M adhesion to osteopontin peptide, 5 µg/ml) [7]: 9% | Percent Inhibition (J6.77 adhesion to CS-1 peptide of fibronectin, 5 ug/ml) [1]: -7% | Percent Inhibition (K562 adhesion to FN9-10 peptide of fibronectin, 5 µg/ml) [5]: 2% | % Cells Shifted [2]: 45% | GeoMean [2]: 2.14 | % Cells Shifted (cynomolgus αVβ6 on cells): 53% | GeoMean (cynomolgus αVβ6 on cells): 63.1 | FMAT Count [6]: 102 | FMAT FL1 [6]: 2140 | FMAT FL1 × Count [6]: 218000 | Kd (soluble αVβ6): 21 nM | koff (soluble αVβ6): 0.00118 s⁻¹ | kon (soluble αVβ6): 56500 M⁻¹ s⁻¹

B5: sc 374 (antibody, V domains shown)
VH: QVQLVESGGGVVQPGRSLRLSCAASGFTFSSYGMHWVRQAPGKGLEWVAVIWYDGSNKYYADSVKGRFTISRDNSKNTLYLQMNSLRAEDTAVYYCARTEGIAARLYYYYGMDVWGQGTTVTVSS
VL: not shown
GeoMean [2]: 2.14 | GeoMean (cynomolgus αVβ6 on cells): 61.8

B6: sc 277 (antibody, V domains shown)
VH: EVQLVQSGAEVKKPGESLKISCKGSGYSFPSYWIGWVRQMPGKGLEWMGIIYPGDSDTRYSPSFQGQVTISADKSISTAYLQWSSLKASDTAMYYCARHPMEDGMDVWGQGTTVTVSS
VL: SYELTQPPSVSVSPGQTARITCSGDALPKKYAFWYQQKSGQAPVLVIYDDNKRPSGIPERFSGSSSGTMATLTITGAQVEDEADYYCYSTDSSGHHVFGGGTKLTVL
Assay 1 % Inhibition (HT29 adhesion to TGFβLAP) [3]: 98% | Assay 2 % Inhibition (HT29 adhesion to TGFβLAP) [3]: 101% | Average % Inhibition (HT29 adhesion to TGFβLAP) [3]: 100% | Estimated IC50, n = 1 (HT29 adhesion to TGFβLAP) [4]: 1.46 µg/mL | Estimated IC50, n = 2 (HT29 adhesion to TGFβLAP) [4]: 0.54 µg/mL | Estimated IC50, n = 3 (HT29 adhesion to TGFβLAP) [4]: 0.72 µg/mL | Percent Inhibition (J6.77 adhesion to CS-1 peptide of fibronectin, 5 ug/ml) [1]: -17% | % Cells Shifted [2]: 23% | GeoMean [2]: 1.86 | % Cells Shifted (cynomolgus αVβ6 on cells): 35% | GeoMean (cynomolgus αVβ6 on cells): 33.4 | FMAT Count [6]: 28 | FMAT FL1 [6]: 382 | FMAT FL1 × Count [6]: 10700

B7: sc 161 (antibody, V domains shown)
VH: EVQLVQSGAEVKKPGESLKISCKGSGYSFTSYWIGWVRQMPGKGLEWMGIIYPGDSDTRYSPSFQGQVTISADKSISTAYLQWSSLKASDTAMYYCARHGIAAAGFYYYYMDVWGQGTTVTVSS
VL: EIVLTQSPDTLSLSPGERASLSCRASQNVNRNYLVWYQQKPGQAPRLLIYGTSNRATGIPDRFSGSGSGTDFTLTISRLEPEDFAVYYCQQCGSLPFTFGPGTKVDIKR
Assay 1 % Inhibition (HT29 adhesion to TGFβLAP) [3]: 98% | Assay 2 % Inhibition (HT29 adhesion to TGFβLAP) [3]: 106% | Average % Inhibition (HT29 adhesion to TGFβLAP) [3]: 102% | Estimated IC50, n = 1 (HT29 adhesion to TGFβLAP) [4]: 2.41 µg/mL | Estimated IC50, n = 2 (HT29 adhesion to TGFβLAP) [4]: 0.137 µg/mL | Percent Inhibition (J6.77 adhesion to CS-1 peptide of fibronectin, 5 ug/ml) [1]: 12% | % Cells Shifted [2]: 11% | GeoMean [2]: 16.7 | % Cells Shifted (cynomolgus αVβ6 on cells): 14% | GeoMean (cynomolgus αVβ6 on cells): 33 | FMAT Count [6]: 23 | FMAT FL1 [6]: 725 | FMAT FL1 × Count [6]: 16700

B8: sc 58 (antibody, V domains shown)
VH: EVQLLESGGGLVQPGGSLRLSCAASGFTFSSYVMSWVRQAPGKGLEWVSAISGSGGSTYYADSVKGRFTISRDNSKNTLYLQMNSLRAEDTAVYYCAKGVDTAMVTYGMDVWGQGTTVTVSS
VL: SYELTQPPSVSVSPGQTARITCSGDALPKKYAYWYQQKSGQAPVLVIYDDSKRPSGIPERFSGSSSGTMATLTISGAQVEDEADYYCYSTDSSGNHRVFGGGTKLTVL
notes: also called sc 058
Assay 1 % Inhibition (HT29 adhesion to TGFβLAP) [3]: 77% | Assay 2 % Inhibition (HT29 adhesion to TGFβLAP) [3]: 46% | Average % Inhibition (HT29 adhesion to TGFβLAP) [3]: 62% | Estimated IC50, n = 1 (HT29 adhesion to TGFβLAP) [4]: 4.07 µg/mL | Estimated IC50, n = 2 (HT29 adhesion to TGFβLAP) [4]: 2.03 µg/mL | Estimated IC50, n = 3 (HT29 adhesion to TGFβLAP) [4]: 3.26 µg/mL | Percent Inhibition (J6.77 adhesion to CS-1 peptide of fibronectin, 5 ug/ml) [1]: -14% | % Cells Shifted [2]: 18% | GeoMean [2]: 1.78

B9: sc 49 (antibody, V domains shown)
VH: QVQLQESGPGLVKPSQTLSLTCTVAGGSIRSGDYYWSWIRQHPGKGLEWIGNIYYSGSTYYNPSLKSRITISVATSRNQFSLKLTSVTAADTAVYYCARGGAITIFGVFDYWGQGTLVTVSS
VL: not shown
notes: also called sc 049
% Cells Shifted [2]: 20% | GeoMean [2]: 1.74

B10: sc 264 (antibody, V domains shown)
VH: QVQLQESGPGLVKPSQTLSLTCTVSGGSISSGGYYWSWIRQHPGKGLEWIGYIYYSGRTYNNPSLKSRVTISVDTSKNQFSLKLSSVTAADTAVYYCARVATGRGDYHFYAMDVWGQGTTVTVSS
VL: SYELTQPSSVSVSPGQTARITCSGDVLAKKSARWFHQKPGQAPVLVIYKDSERPSGIPERFSGSSSGTTVTLTISGAQVEDEAAYYCYSAADNNLVFGGGTKLTVL
notes: RGD in heavy chain CDR3
Percent Inhibition (A375M adhesion to osteopontin peptide, 5 µg/ml) [7]: 3% | Percent Inhibition (J6.77 adhesion to CS-1 peptide of fibronectin, 5 ug/ml) [1]: -8% | Percent Inhibition (K562 adhesion to FN9-10 peptide of fibronectin, 5 µg/ml) [5]: -4% | Percent Inhibition (J6.77 adhesion to CS-1 peptide of fibronectin, 5 ug/ml) [8]: -30% | % Inhibition (K562 adhesion to fibronectin) [9]: 3% | % Cells Shifted [2]: 46% | GeoMean [2]: 2.35
